Data taken from the supplement of paper PMC7877785.
± gives the uncertainty stated by the source.

Test: self-splicing fitness, log relative to wild type (ln ratio); higher = more splicing; Tetrahymena group I intron in knt gene, E. coli kanamycin selection, DiMSum; sequences stand for … in CUCUCU…GGAGGGAAAAGUUAUCAGGCAUGCACCUGGUAGCUAGUCUUUAAACCAAUAGAUUGCAUCGGUUUAAAAGGCAAGACCGUCAAAUUGCGGGAAAGGGGUCAACAGCCGUUCAGUACCAAGUCUCAGGGGAAACUUUGAGAUGGCCUUGCAAAGGGUAUGGUAAUAAGCUGACGGACAUGGUCCUAACCACGCAGCCAAGUCCUAAGUCAACAGAUCUUCUGUUGAUAUGGAUGCAGUUCACAGACUAAAUGUCGGUCGGGGAAGAUGUAUUCUUCUCAUAAGAUAUAGUCGGACCUCUCCUUAAUGGGAGCUAGCGGAUGAAGUGAUGCAACACUGGAGCCGCUGGGAACUAAUUUGUAUGCGAAAGUAUAUUGAUUAGUUUUGGAGUACUCGUGGUCG
Summary of the method: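 Pooled colonies went to amplicon sequencing on an Illumina HiSeq 2500 after six replicate transformations. The plates were LB agar with 100 μg/mL carbenicillin, 50 μM IPTG and 0.2% rhamnose, with or without 25 μg/mL kanamycin, incubated overnight at 37°C or 30°C. The E. coli BL21(DE3) library had all eight P1ex-region intron nucleotides randomised, the intron placed in the knt kanamycin-resistance gene on pET-22b(+). DiMSum fitness is the error-weighted combination of replicate fold changes, kanamycin against none, normalised to wild type.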

Sequence | self-splicing fitness (ln) (30 °C) | self-splicing fitness (ln) (37 °C)
GUUAAGCAAUAUUACGGGAC | -1.6 ± 0.17 | -0.964 ± 0.23
CAAAAGCAAUAUUACGGGAG | -2.05 ± 0.074 | -0.972 ± 0.079
GAUGAGCAAUAUUACGUUCG | -2.05 ± 0.14 | -0.925 ± 0.18
CGGGAGCAAUAUUACGGAAG | -2.64 ± 0.18 | -1.3 ± 0.17
CUUCAGCAAUAUUACGGUGU | -4.48 ± 0.21 | -3.73 ± 0.25
UAACAGCAAUAUUACGGAGC |  | -2.58 ± 0.29
GAGAAGCAAUAUUACGAGAA | -2.75 ± 0.47 | -0.703 ± 0.35
UUGUAGCAAUAUUACGGGGC | -3.56 ± 0.37 | -3.67 ± 0.46
CCUGAGCAAUAUUACGAAUC | -3.69 ± 0.33 | -2.34 ± 0.43
CGUCAGCAAUAUUACGUACC | -1.33 ± 0.13 | 0.208 ± 0.15
AACGAGCAAUAUUACGCCCG | -1.98 ± 0.32 | -0.148 ± 0.33
UCGUAGCAAUAUUACGAACA | -2.55 ± 0.28 | -1.82 ± 0.2
UGCAAGCAAUAUUACGUAGG | -3.31 ± 0.21 | -0.277 ± 0.14
CAAUAGCAAUAUUACGGCCA | -3.08 ± 0.3 | -1.49 ± 0.32
CAGCAGCAAUAUUACGGGAC | -3.71 ± 0.22 | -2.46 ± 0.27
GGCCAGCAAUAUUACGGAUG | -0.5 ± 0.08 | -0.503 ± 0.077
GAUCAGCAAUAUUACGGAAU | -1.27 ± 0.065 | -0.181 ± 0.087
CUAUAGCAAUAUUACGGCAG | -1.51 ± 0.13 | -0.425 ± 0.13

Sequence | self-splicing fitness (ln) (30 °C) | self-splicing fitness (ln) (37 °C)
UGAAAGCAAUAUUACGGGUC |  | -2.71 ± 0.25
GAUAAGCAAUAUUACGUGCA | -0.463 ± 0.15 | -1.06 ± 0.18
CAUCAGCAAUAUUACGACGU | -0.965 ± 0.064 | -0.79 ± 0.09
CGCUAGCAAUAUUACGGCAC | -1.9 ± 0.18 | 0.16 ± 0.19
AGAUAGCAAUAUUACGGGCG | -1.16 ± 0.14 | 0.433 ± 0.15
CUCAAGCAAUAUUACGCCCC |  | -1.28 ± 0.5
CUGUAGCAAUAUUACGUCCU | -3.57 ± 0.4 | 
GUCAAGCAAUAUUACGUACG | -2.46 ± 0.14 | -1.9 ± 0.17
GUACAGCAAUAUUACGGCCU | -1.84 ± 0.17 | 0.0868 ± 0.17
UACUAGCAAUAUUACGACAC | -2.53 ± 0.2 | -0.604 ± 0.15
CUUGAGCAAUAUUACGGGAU | -2.99 ± 0.32 | -2.63 ± 0.31
CAUUAGCAAUAUUACGAAGU |  | -1.37 ± 0.44
GCAGAGCAAUAUUACGGCAG | -2.87 ± 0.23 | -1.18 ± 0.25
CGGAAGCAAUAUUACGCGGG | -1.64 ± 0.16 | -1.35 ± 0.18
AUCCAGCAAUAUUACGGCUA | -0.15 ± 0.092 | -0.19 ± 0.08
CGGAAGCAAUAUUACGUAGU | -3.43 ± 0.14 | -1.97 ± 0.13
AUGAAGCAAUAUUACGGCGC | -0.339 ± 0.074 | 0.665 ± 0.11
